Test results: patent EP3250590B1 (Academia Sinica, dated 2021)

Biological target: T1, BSA (bovine, UniProt P02769 25-607)
T1 construct: also called BSA control protein; bovine serum albumin
Test: ELISA, intact IgG on coated BSA

T1 sequence (P02769 25-607 limits assumed): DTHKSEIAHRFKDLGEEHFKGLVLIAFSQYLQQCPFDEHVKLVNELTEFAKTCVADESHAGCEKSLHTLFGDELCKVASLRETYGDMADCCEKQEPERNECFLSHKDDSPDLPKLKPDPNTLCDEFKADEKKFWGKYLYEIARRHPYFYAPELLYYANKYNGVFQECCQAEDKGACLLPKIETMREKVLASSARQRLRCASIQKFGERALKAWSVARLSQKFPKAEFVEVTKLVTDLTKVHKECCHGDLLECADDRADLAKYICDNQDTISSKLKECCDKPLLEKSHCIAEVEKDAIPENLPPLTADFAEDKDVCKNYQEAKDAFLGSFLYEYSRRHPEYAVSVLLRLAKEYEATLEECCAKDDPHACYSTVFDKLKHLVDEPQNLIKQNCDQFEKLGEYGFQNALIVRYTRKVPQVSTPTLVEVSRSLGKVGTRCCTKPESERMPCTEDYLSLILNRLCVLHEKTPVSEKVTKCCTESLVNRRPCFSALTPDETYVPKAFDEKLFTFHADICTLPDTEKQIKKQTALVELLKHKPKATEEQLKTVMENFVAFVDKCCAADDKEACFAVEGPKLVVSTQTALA

Binder | binding result
3rd humanized MC41 IgG (antibody, V domains shown, also called 3rd-hMC41) VH: QVQLKESGPGLVAPSKTLSLTCTVSGFSLSSQGVYWIRQPPGKGLEWIGAIWAGGSTNYNSALMSRLSISKDNSKSQVFLKMNSLQTDDTAMYYCARVDGYRGYNMDYWGQGTSVTVSS VL: ENVLTQSPAIMSATPGEKVTMTCSASSSVSYMHWYQQKSSTSPKLWIYDTSKLASGVPGRFSGSGSGNSYTLTISSMEAEDVATYYCFQGSGYPLTFGAGTKLEIKR | no binding
chimeric MC41 (antibody, V domains shown, Chimeric intact IgG of murine MC41; also called chMC41) VH: QVQLKESGPGLVAPSKSLSITCTVSGFSLSSQGVYWVRQPPGKGLEWLGAIWAGGSTNYNSALMSRLSISKDNSKSQVFLKMNSLQTDDTAMYYCARVDGYRGYNMDYWGQGTSVTVSS VL: ENVLTQSPAIMSASPGEKVTMTCSASSSVSYMHWYQQKSSTSPKLWIYDTSKLASGVPGRFSGSGSGNSYSLTISSMEAEDVATYYCFQGSGYPLTFGAGTKLELKR | no binding
2nd humanized MC41 IgG (antibody, V domains shown, also called hMC41; humanized 2nd IgG) VH: QVQLKESGPGLVAPSKTLSLTCTVSGFSLSSQGVYWIRQPPGKGLEWIGAIWAGGSTNYNSALMSRLSISKDNSKSQVFLKMNSLQTDDTAMYYCARVDGYRGYNMDYWGQGTLVTVSS VL: ENVLTQSPAIMSATPGEKVTMTCSASSSVSYLHWYQQKSSTSPKLWIYDTSKLASGVPGRFSGSGSGNSYTLTISSMEAEDVATYYCFQGSGYPLTFGAGTKLEIKR | no binding
